Article PMC7618510

Target: T1, HA-Halo-MRAP2 (human), Q96G30
T1 chain: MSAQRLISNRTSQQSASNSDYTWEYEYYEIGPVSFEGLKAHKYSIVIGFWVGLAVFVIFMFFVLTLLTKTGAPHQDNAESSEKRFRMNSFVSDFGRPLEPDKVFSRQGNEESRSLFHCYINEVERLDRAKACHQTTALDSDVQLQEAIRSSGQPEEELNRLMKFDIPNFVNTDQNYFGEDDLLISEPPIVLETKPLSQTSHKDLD
Assay: single-molecule pull-down (SiMPull) with photobleaching step counting; one colour: HEK293 cells expressing the HA-Halo-tagged protein alone, labelled at the surface with membrane-impermeable CA-Sulfo646, lysed in 0.5% LMNG/0.05% CHS, immobilised by the HA tag on slides with biotinylated HA antibody, single molecules imaged by TIRF
Conditions: remark: other sources report otherwise

- percent of molecules with a single bleaching step: 68%
- percent of molecules with three or four bleaching steps: < 5%
- percent of molecules with two bleaching steps: 28%
B1: HA-Halo-MRAP2, Q96G30 1-205 (natural protein)
chain: MSAQRLISNRTSQQSASNSDYTWEYEYYEIGPVSFEGLKAHKYSIVIGFWVGLAVFVIFMFFVLTLLTKTGAPHQDNAESSEKRFRMNSFVSDFGRPLEPDKVFSRQGNEESRSLFHCYINEVERLDRAKACHQTTALDSDVQLQEAIRSSGQPEEELNRLMKFDIPNFVNTDQNYFGEDDLLISEPPIVLETKPLSQTSHKDLD
modifications: here or on the partner: CA-Sulfo646 dye on the Halo tag; CA-Sulfo646 dye on the Halo tag
